How the values were obtained:
[1] = molecular target: recombinant His-tagged NS1 protein of West Nile virus strain IS-98-ST1 (NS1^WNV) (West Nile virus, strain IS-98-ST1); test: SDS-PAGE without heat denaturation + Western blot
[2] = molecular target: recombinant His-tagged NS1 protein of West Nile virus strain IS-98-ST1 (NS1^WNV) (West Nile virus, strain IS-98-ST1); test: negative-stain electron microscopy

Substance: recombinant His-tagged NS1 protein of West Nile virus strain IS-98-ST1 (NS1^WNV) (natural protein)
- stoichiometry N [1]: 2
- stoichiometry N [2]: 6

Source: paper PMC6832617
